Data published in patent US20200040358A1 (published 2020).
Where a chain is given by its changes, count along the chain named. Values belong to the binder of their own block, whether it stands above or below them.

Experiments:
[1] = molecular target: T1, NY-ESO-1 peptide on HLA-B*07:02 (human); test: cytokine release
T1 peptide: SLLMWITQC

[2] = molecular target: T2, NY-ESO-1 peptide on HLA-A*02:01 (human); test: multimer staining
T2 peptide: SLLMWITQC

[3] = molecular target: T3, NY-ESO-1 peptide on HLA-A*02:01 (human (alpha3 domain mouse)); test: activation reporter or marker
T3 peptide: SLLMWITQC

binding result [1]: no recognition | binding result [2]: recognises | binding result [3]: recognises
B1: TCR18168 (TCR, V domains shown)
Valpha: QSVAQPEDQVNVAEGNPLTVKCTYSVSGNPYLFWYVQYPNRGLQFLLKYITGDNLVKGSYGFEAEFNKSQTSFHLKKPSALVSDSALYFCAVRELYSGAGSYQLTFGKGTKLSVIP
Vbeta: QKPSRDICQRGTSLTIQCQVDSQVTMMFWYRQQPGQSLTLIATANQGSEATYESGFVIDKFPISRPNLTFSTLTVSNMSPEDSSIYLCSVGGAGVTDTQYFGPGTRLTVL

binding result [2]: recognises
B2: TCR0068 (TCR, V domains shown)
Valpha: B1 Valpha with G98P, A99R, G100L, S101M, Y102W
Vbeta: B1 Vbeta

binding result [2]: recognises
B3: TCR0030 (TCR, V domains shown)
Valpha: B1 Valpha with E94D, L95S, Y96K, S97A
Vbeta: B1 Vbeta

binding result [2]: recognises
B4: TCR0018 (TCR, V domains shown)
Valpha: B1 Valpha with E94D, Y96S, S97D
Vbeta: B1 Vbeta

binding result [2]: recognises
B5: TCR0024 (TCR, V domains shown)
Valpha: B1 Valpha with E94D, L95Q, Y96A, S97L
Vbeta: B1 Vbeta

binding result [2]: recognises
B6: TCR0014 (TCR, V domains shown)
Valpha: B1 Valpha with E94D, Y96F, S97T
Vbeta: B1 Vbeta

binding result [2]: recognises
B7: TCR0070 (TCR, V domains shown)
Valpha: B1 Valpha with G98A, A99T, G100V, S101D
Vbeta: B1 Vbeta

binding result [2]: recognises
B8: TCR0012 (TCR, V domains shown)
Valpha: B1 Valpha with E94G, Y96L, S97N
Vbeta: B1 Vbeta

binding result [2]: recognises
B9: TCR0062 (TCR, V domains shown)
Valpha: B1 Valpha with G98T, A99T, G100F, S101G, Y102W
Vbeta: B1 Vbeta

binding result [2]: recognises
B10: TCR0066 (TCR, V domains shown)
Valpha: B1 Valpha with G98A, A99L, G100V, S101T
Vbeta: B1 Vbeta

binding result [2]: recognises
B11: TCR0020 (TCR, V domains shown)
Valpha: B1 Valpha with E94S, L95S, S97E, S101R
Vbeta: B1 Vbeta

binding result [2]: recognises
B12: TCR0050 (TCR, V domains shown)
Valpha: B1 Valpha with G98V, G100V, S101R
Vbeta: B1 Vbeta

binding result [2]: recognises
B13: TCR0010 (TCR, V domains shown)
Valpha: B1 Valpha with E94D, L95S, Y96F, S97E
Vbeta: B1 Vbeta

binding result [2]: recognises
B14: TCR0032 (TCR, V domains shown)
Valpha: B1 Valpha with E94D, Y96F, S97C
Vbeta: B1 Vbeta

binding result [2]: recognises
B15: TCR0028 (TCR, V domains shown)
Valpha: B1 Valpha with E94D, L95M, Y96A, S97N
Vbeta: B1 Vbeta

binding result [2]: recognises
B16: TCR0022 (TCR, V domains shown)
Valpha: B1 Valpha with E94D, L95D, Y96L, S97V
Vbeta: B1 Vbeta

binding result [2]: recognises
B17: TCR0060 (TCR, V domains shown)
Valpha: B1 Valpha with G98R, A99G, G100V, S101K, Y102W
Vbeta: B1 Vbeta

binding result [2]: recognises
B18: TCR0036 (TCR, V domains shown)
Valpha: B1 Valpha with E94D, Y96T, S97T
Vbeta: B1 Vbeta
